Positions count from the first letter of the chain named. Numbers in names are those of the source. Each block holds one binder with its values, some of them ahead of it.
Legend:
human BCMA = target: T1, human BCMA (human, UniProt Q02223 1-184); assay: FACS on NCI-H929 cells
T1 construct: whole, on cells; also called hBCMA; TNFRSF17
T1 sequence (looked up): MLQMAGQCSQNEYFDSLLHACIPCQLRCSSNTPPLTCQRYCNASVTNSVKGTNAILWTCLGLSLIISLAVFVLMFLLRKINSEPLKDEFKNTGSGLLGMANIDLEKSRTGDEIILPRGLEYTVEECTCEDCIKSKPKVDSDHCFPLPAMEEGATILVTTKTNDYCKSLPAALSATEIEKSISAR

[1] = target: T2, human CTLA4 on cells (CHO-K1/hCTLA4; HEK293/hCTLA4; 293F-hCTLA4) (human, UniProt P16410 36-223); assay: competition FACS: biotinylated B7-1-Fc to CHO-K1/hCTLA4 cells (Test 2)
T2 construct: whole, on cells

[2] = target: T2, human CTLA4 on cells (CHO-K1/hCTLA4; …); assay: FACS, CHO-K1/hCTLA4 cells (Test 2)
[3] = target: T3, human PD-L1 on cells (CHO-K1/hPDL1; MDA-MB-231) (human, UniProt Q9NZQ7 19-290); assay: competition FACS: biotinylated PD-1 to CHO-K1/hPDL1 cells (Experiment 2)
T3 construct: whole, on cells

[4] = target: T3, human PD-L1 on cells (CHO-K1/hPDL1; …); assay: FACS, CHO-K1/hPDL1 cells (Experiment 2)

T2 sequence (P16410 36-223): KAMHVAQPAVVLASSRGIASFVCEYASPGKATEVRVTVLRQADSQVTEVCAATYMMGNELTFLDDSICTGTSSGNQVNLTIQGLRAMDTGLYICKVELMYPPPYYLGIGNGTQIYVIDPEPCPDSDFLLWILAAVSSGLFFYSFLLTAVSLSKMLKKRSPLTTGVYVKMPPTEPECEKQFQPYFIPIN
T3 sequence (Q9NZQ7 19-290): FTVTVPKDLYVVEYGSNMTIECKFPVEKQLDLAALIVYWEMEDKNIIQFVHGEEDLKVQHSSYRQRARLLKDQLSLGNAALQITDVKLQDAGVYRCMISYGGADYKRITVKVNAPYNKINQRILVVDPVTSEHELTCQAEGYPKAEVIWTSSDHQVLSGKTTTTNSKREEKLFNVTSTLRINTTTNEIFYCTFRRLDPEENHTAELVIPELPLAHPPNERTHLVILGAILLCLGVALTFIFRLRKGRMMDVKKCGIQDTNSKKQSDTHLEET

- Maximum MFI (human BCMA): 4640
B1: PR002000 (bispecific antibody, IgG1)
chain 1: QAVVTQEPSLTVSPGGTVTLTCRSSTGAVTTSNYANWVQQKPGQAPRGLIGGTNKRAPWTPARFSGSLLGDKAALTLLGAQPEDEAEYFCALWYSNLWVFGGGTKLTVLGGGQSGQGGSGGGGSEVQLVESGGGLVQPGGSLKLSCAASGFTFNTYAMNWVRQASGKGLEWVGRIRSKYNNYATYYADSVKDRFTISRDDSKSTLYLQMNSLKTEDTAVYYCVRHGNFGNSYVSWFAYWGQGTLVTVSSASEPKSSDKTHTCPPCPAPEAAGGPSVFLFPPKPKDTLMISRTPEVTCVVVDVSHEDPEVKFNWYVDGVEVHNAKTKPREEQYNSTYRVVSVLTVLHQDWLNGKEYKCKVSNKALGAPIEKTISKAKGQPREPQVYTLPPCREEMTKNQVSLWCLVKGFYPSDIAVEWESNGQPENNYKTTPPVLDSDGSFFLYSKLTVDKSRWQQGNVFSCSVMHEALHNHYTQKSLSLSPGK
chain 2: EVQLVETGGGLIQPGGSLRLSCAASGFPVSSNYMSWVRQAPGKGLEWVSVIFSGGRTYYADSVKGRFTISRDNSKNTLYLQMNSLRAEDTAVYYCARRNWIDGRDAFDIWGQGTMVTVSSASEPKSSDKTHTCPPCPAPEAAGGPSVFLFPPKPKDTLMISRTPEVTCVVVDVSHEDPEVKFNWYVDGVEVHNAKTKPREEQYNSTYRVVSVLTVLHQDWLNGKEYKCKVSNKALGAPIEKTISKAKGQPREPQVCTLPPSREEMTKNQVSLSCAVKGFYPSDIAVEWESNGQPENNYKTTPPVLDSDGSFFLVSKLTVDKSRWQQGNVFSCSVMHEALHNHYTQKSLSLSPGK
notes: BCMAxCD3, scFv(VL-VH)-Fc-VH (structure 20); CD3 scFv of PR000510, BCMA VH of PR000943; IgG1 knob/hole, AAG

- IC50 [1]: 6.22 nM
- Maximum inhibition rate (%) [1]: 99.2%
- EC50 [2]: 9.9 nM
- Maximum MFI [2]: 781 MFI
- IC50 [3]: 0.5 nM
- Maximum inhibition rate (%) [3]: 82.3%
- EC50 [4]: 0.83 nM
- Maximum MFI [4]: 8310 MFI
B2: PR001573 (bispecific antibody, human IgG1, kappa)
light: DIQMTQSPSTLSASVGDRVTVTCRASQSIYIWLAWYQQKPGKAPNLLIYKASSLETGVPSRFSGSGSGTEFTLTISSLQPDDFATYYCQQYYGSSRTFGQGTKVEIKRTVAAPSVFIFPPSDEQLKSGTASVVCLLNNFYPREAKVQWKVDNALQSGNSQESVTEQDSKDSTYSLSSTLTLSKADYEKHKVYACEVTHQGLSSPVTKSFNRGEC
chain: not shown
notes: PD-L1×CTLA4, structure 3

- IC50 [3]: 0.27 nM
- Maximum inhibition rate (%) [3]: 79.8%
- EC50 [4]: 0.5 nM
- Maximum MFI [4]: 8380 MFI
B3: PR000416, anti-PD-L1 91G3H5H3(D54E), hIgG1 (antibody)
heavy: not shown
light: B2 light

- EC50 (human BCMA): 28.9 nM
B4: PR000274 (antibody, human IgG1, kappa, V domains shown)
VH: QVQLVQSGAEVKKPGSSVKVSCKASGGTFSNYWMHWVRQAPGQGLEWMGATYRGHSDTYYNQKFKGRVTITADKSTSTAYMELSSLRSEDTAVYYCARGAIYDGYDVLDNWGQGTLVTVSS
VL: DIQMTQSPSSLSASVGDRVTITCSASQDISNYLNWYQQKPGKAPKLLIYYTSNLHSGVPSRFSGSGSGTDFTLTISSLQPEDFATYYCQQYRKLPWTFGQGTKLEIKR
notes: also called Positive control 1; CA8-J6M0

- EC50 (human BCMA): 1.5 nM
- Maximum MFI (human BCMA): 11000
B5: PR003874 (bispecific antibody, human IgG1, lambda, L234A L235A)
light: QAVVTQEPSLTVSPGGTVTLTCRSSTGAVTTSNYANWVQQKPGQAPRGLIGGTNKRAPWTPARFSGSLLGDKAALTLLGAQPEDEAEYFCALWYSNLWVFGGGTKLTVLGQPKAAPSVTLFPPSSEELQANKATLVCLISDFYPGAVTVAWKADSSPVKAGVETTTPSKQSNNKYAASSYLSLTPEQWKSHRSYSCQVTHEGSTVEKTVAPTECS
heavy: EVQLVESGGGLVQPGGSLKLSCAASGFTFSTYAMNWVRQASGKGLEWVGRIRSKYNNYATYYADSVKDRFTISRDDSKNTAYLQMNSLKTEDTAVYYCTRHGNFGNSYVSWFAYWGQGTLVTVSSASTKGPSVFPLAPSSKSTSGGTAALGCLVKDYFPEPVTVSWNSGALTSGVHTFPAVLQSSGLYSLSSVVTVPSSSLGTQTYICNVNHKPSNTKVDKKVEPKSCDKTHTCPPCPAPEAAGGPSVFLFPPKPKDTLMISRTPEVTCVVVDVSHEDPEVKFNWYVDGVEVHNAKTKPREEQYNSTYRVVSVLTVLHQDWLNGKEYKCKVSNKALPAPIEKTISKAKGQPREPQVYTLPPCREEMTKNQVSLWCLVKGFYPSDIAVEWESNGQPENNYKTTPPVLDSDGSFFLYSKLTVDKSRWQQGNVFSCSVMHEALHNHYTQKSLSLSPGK
chain: EVQLVETGGGLIQPGGSLRLSCAASGFTVSDSYMTWVRQAPGKGLEWVSVIFSGGRTYYSDSVKGRFTISRDNAKNTLYLQMNSLRAEDTALYYCARRNYDQTRGTDVFDIWGQGTMVTVSSASEPKSSDKTHTCPPCPAPEAAGGPSVFLFPPKPKDTLMISRTPEVTCVVVDVSHEDPEVKFNWYVDGVEVHNAKTKPREEQYNSTYRVVSVLTVLHQDWLNGKEYKCKVSNKALPAPIEKTISKAKGQPREPQVCTLPPSREEMTKNQVSLSCAVKGFYPSDIAVEWESNGQPENNYKTTPPVLDSDGSFFLVSKLTVDKSRWQQGNVFSCSVMHEALHNHYTQKSLSLSPGK
notes: BCMAxCD3, Fab-Fc-VH (structure 11); CD3 Fab of PR003886, BCMA VH of PR004569; IgG1 knob/hole, LALA

- EC50 (human BCMA): 2.3 nM
- Maximum MFI (human BCMA): 10900
B6: PR003876 (bispecific antibody, human IgG1, lambda, L234A L235A)
light: B5 light
heavy: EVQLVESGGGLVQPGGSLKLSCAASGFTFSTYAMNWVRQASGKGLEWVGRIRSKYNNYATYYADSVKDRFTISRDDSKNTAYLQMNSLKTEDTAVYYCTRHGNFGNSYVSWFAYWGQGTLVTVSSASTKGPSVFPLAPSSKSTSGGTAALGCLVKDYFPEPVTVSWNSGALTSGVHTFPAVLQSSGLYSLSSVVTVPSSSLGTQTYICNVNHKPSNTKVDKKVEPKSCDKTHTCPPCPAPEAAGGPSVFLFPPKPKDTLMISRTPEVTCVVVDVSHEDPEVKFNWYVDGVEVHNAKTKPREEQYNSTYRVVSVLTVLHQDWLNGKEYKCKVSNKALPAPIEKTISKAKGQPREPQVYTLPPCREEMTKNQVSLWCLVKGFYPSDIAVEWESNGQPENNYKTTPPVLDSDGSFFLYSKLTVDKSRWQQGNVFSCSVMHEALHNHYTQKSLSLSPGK
chain: B5 chain with R56K, R104I
notes: BCMAxCD3, Fab-Fc-VH (structure 11); CD3 Fab of PR003886, BCMA VH of PR004571; IgG1 knob/hole, LALA

- EC50 (human BCMA): 1.8 nM
- Maximum MFI (human BCMA): 11100
B7: PR003882 (bispecific antibody, human IgG1, lambda, L234A L235A)
light: B5 light
heavy: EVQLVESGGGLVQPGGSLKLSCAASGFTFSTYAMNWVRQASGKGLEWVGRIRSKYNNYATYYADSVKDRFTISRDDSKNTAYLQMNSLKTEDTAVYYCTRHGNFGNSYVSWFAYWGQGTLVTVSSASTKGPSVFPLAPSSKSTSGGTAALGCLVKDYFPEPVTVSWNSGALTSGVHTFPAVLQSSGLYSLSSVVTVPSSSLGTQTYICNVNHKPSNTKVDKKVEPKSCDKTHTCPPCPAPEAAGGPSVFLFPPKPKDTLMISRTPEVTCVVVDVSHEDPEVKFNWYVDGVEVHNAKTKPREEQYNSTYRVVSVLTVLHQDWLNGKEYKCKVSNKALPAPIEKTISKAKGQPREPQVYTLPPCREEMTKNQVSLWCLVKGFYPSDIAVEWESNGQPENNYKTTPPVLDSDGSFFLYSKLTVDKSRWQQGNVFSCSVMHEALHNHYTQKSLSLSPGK
chain: B5 chain with R56K, R104L
notes: BCMAxCD3, Fab-Fc-VH (structure 11); CD3 Fab of PR003886, BCMA VH of PR004562; IgG1 knob/hole, LALA

- Maximum MFI (human BCMA): 32800
B8: PR002299 (bispecific antibody, human IgG1, lambda, L234A L235A)
light: B5 light
heavy: EVQLLESGGGLVQPGGSLRLSCAASGFTFSTYAMNWVRQAPGKGLEWVSRIRSKYNNYATYYADSVKDRFTISRDDSKSTLYLQMNSLRAEDTAVYYCVRHGNFGNSYVSWFAYWGQGTLVTVSSASTKGPSVFPLAPSSKSTSGGTAALGCLVKDYFPEPVTVSWNSGALTSGVHTFPAVLQSSGLYSLSSVVTVPSSSLGTQTYICNVNHKPSNTKVDKKVEPKSCDKTHTCPPCPAPEAAGGPSVFLFPPKPKDTLMISRTPEVTCVVVDVSHEDPEVKFNWYVDGVEVHNAKTKPREEQYNSTYRVVSVLTVLHQDWLNGKEYKCKVSNKALGAPIEKTISKAKGQPREPQVYTLPPCREEMTKNQVSLWCLVKGFYPSDIAVEWESNGQPENNYKTTPPVLDSDGSFFLYSKLTVDKSRWQQGNVFSCSVMHEALHNHYTQKSLSLSPGK
chain: EVQLLESGGGLVQPGGSLRLSCAASGFTFSSYAMIWVRQAPGKGLEWVSGISESGGSTYYADSVKGRFTISRDNSKNTLYLQMNSLRAEDTAVYFCVKDLDDILTGYYKDYWGQGTLVTVSSRTGGGGSKLEVQLLESGGGLVQPGGSLRLSCAASGFTFSSYAMIWVRQAPGKGLEWVSGISESGGSTYYADSVKGRFTISRDNSKNTLYLQMNSLRAEDTAVYFCVKDLDDILTGYYKDYWGQGTLVTVSSASEPKSSDKTHTCPPCPAPEAAGGPSVFLFPPKPKDTLMISRTPEVTCVVVDVSHEDPEVKFNWYVDGVEVHNAKTKPREEQYNSTYRVVSVLTVLHQDWLNGKEYKCKVSNKALGAPIEKTISKAKGQPREPQVCTLPPSREEMTKNQVSLSCAVKGFYPSDIAVEWESNGQPENNYKTTPPVLDSDGSFFLVSKLTVDKSRWQQGNVFSCSVMHEALHNHYTQKSLSLSPGK
notes: BCMAxCD3, Fab-Fc-VH(2) (structure 14); CD3 Fab of PR001848, two BCMA VH of PR000940, linker RT-GS_5-KL; IgG1 knob/hole, AAG

- EC50 (human BCMA): 9 nM
- Maximum MFI (human BCMA): 84500
B9: PR002332 (bispecific antibody, human IgG1, lambda, L234A L235A)
light: B5 light
heavy: B8 heavy
chain: EVQLVETGGGLIQPGGSLRLSCAASGFTVSDNYMTWVRQAPGKGLEWVSVIFSGGNTYYADSVKGRFTISRDNAKNTLYLQMNSLRAEDTALYYCARRNYDDTRGTDVFDIWGQGTMVTVSSRTGGGGSGGGGSGGGGSKLEVQLVETGGGLIQPGGSLRLSCAASGFTVSSNYMTWVRQAPGKGLEWVSVIFSGGSTYYADSVKGRFTISRDNSKNTLYLQMNSLRAEDTAVYYCARRIAVAGHDVFDIWGQGTMVTVSSASEPKSSDKTHTCPPCPAPEAAGGPSVFLFPPKPKDTLMISRTPEVTCVVVDVSHEDPEVKFNWYVDGVEVHNAKTKPREEQYNSTYRVVSVLTVLHQDWLNGKEYKCKVSNKALGAPIEKTISKAKGQPREPQVCTLPPSREEMTKNQVSLSCAVKGFYPSDIAVEWESNGQPENNYKTTPPVLDSDGSFFLVSKLTVDKSRWQQGNVFSCSVMHEALHNHYTQKSLSLSPGK
notes: BCMAxCD3, Fab-Fc-VH'-VH'' (structure 15); IgG1 knob/hole, AAG

- Maximum MFI (human BCMA): 44200
B10: PR002300 (bispecific antibody, human IgG1, lambda, L234A L235A)
light: B5 light
heavy: B8 heavy
chain: EVQLLESGGGLVQPGGSLRLSCAASGFTFSSYAMIWVRQAPGKGLEWVSGISESGGSTYYADSVKGRFTISRDNSKNTLYLQMNSLRAEDTAVYFCVKDLDDILTGYYKDYWGQGTLVTVSSRTGGGGSGGGGSGGGGSKLEVQLLESGGGLVQPGGSLRLSCAASGFTFSSYAMIWVRQAPGKGLEWVSGISESGGSTYYADSVKGRFTISRDNSKNTLYLQMNSLRAEDTAVYFCVKDLDDILTGYYKDYWGQGTLVTVSSASEPKSSDKTHTCPPCPAPEAAGGPSVFLFPPKPKDTLMISRTPEVTCVVVDVSHEDPEVKFNWYVDGVEVHNAKTKPREEQYNSTYRVVSVLTVLHQDWLNGKEYKCKVSNKALGAPIEKTISKAKGQPREPQVCTLPPSREEMTKNQVSLSCAVKGFYPSDIAVEWESNGQPENNYKTTPPVLDSDGSFFLVSKLTVDKSRWQQGNVFSCSVMHEALHNHYTQKSLSLSPGK
notes: BCMAxCD3, Fab-Fc-VH(2) (structure 14); CD3 Fab of PR001848, two BCMA VH of PR000940, linker RT-GS_15-KL; IgG1 knob/hole, AAG

- EC50 (human BCMA): 5.6 nM
- Maximum MFI (human BCMA): 8660
B11: PR003880 (bispecific antibody, human IgG1, lambda, L234A L235A)
light: B5 light
heavy: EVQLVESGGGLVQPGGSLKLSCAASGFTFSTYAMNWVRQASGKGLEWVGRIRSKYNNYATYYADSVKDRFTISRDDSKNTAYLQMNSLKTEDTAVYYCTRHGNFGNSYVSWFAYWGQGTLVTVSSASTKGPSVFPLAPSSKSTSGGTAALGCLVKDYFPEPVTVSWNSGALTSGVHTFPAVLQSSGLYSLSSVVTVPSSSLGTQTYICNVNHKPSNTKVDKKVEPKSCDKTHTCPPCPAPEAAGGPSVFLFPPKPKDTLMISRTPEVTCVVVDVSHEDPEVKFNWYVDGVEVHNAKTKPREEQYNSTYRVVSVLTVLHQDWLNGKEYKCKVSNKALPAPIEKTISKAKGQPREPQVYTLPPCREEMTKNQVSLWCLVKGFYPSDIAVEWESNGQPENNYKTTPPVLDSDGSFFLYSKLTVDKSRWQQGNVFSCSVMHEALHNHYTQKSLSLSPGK
chain: B5 chain with S32A, R56N, Y59V
notes: BCMAxCD3, Fab-Fc-VH (structure 11); CD3 Fab of PR003886, BCMA VH of PR004560; IgG1 knob/hole, LALA

- EC50 (human BCMA): 2.1 nM
- Maximum MFI (human BCMA): 10800
B12: PR003879 (bispecific antibody, human IgG1, lambda, L234A L235A)
light: B5 light
heavy: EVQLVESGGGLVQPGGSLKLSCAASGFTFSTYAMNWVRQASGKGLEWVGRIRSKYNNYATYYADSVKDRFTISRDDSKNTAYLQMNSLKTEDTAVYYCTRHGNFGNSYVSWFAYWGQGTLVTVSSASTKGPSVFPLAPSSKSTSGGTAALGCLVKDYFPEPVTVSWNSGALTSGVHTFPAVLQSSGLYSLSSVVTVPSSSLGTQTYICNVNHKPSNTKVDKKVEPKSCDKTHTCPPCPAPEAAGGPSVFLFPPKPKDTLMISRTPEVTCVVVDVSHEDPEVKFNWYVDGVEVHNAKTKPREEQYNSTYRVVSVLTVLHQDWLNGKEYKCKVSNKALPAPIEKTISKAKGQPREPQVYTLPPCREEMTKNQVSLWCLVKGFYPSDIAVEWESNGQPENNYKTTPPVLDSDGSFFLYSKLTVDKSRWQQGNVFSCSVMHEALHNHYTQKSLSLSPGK
chain: B5 chain with S32A
notes: BCMAxCD3, Fab-Fc-VH (structure 11); CD3 Fab of PR003886, BCMA VH of PR004574; IgG1 knob/hole, LALA

- Maximum MFI (human BCMA): 4500
B13: PR002002 (bispecific antibody, IgG1)
chain 1: B1 chain 1
chain 2: B5 chain with S32N, R56N, S60A, Q102D, P238G
notes: BCMAxCD3, scFv(VL-VH)-Fc-VH (structure 20); CD3 scFv of PR000510, BCMA VH of PR001046; IgG1 knob/hole, AAG

— patent publication US20230322953A1 (HARBOUR BIOMED SHANGHAI, published 2023)
